The values below come from US20220033904A1 (CHILDREN S MEDICAL CENTER, published 2022).

The target in series [1] is SMO.
For series [2], the target named is T1, FZD5.
T1 chain: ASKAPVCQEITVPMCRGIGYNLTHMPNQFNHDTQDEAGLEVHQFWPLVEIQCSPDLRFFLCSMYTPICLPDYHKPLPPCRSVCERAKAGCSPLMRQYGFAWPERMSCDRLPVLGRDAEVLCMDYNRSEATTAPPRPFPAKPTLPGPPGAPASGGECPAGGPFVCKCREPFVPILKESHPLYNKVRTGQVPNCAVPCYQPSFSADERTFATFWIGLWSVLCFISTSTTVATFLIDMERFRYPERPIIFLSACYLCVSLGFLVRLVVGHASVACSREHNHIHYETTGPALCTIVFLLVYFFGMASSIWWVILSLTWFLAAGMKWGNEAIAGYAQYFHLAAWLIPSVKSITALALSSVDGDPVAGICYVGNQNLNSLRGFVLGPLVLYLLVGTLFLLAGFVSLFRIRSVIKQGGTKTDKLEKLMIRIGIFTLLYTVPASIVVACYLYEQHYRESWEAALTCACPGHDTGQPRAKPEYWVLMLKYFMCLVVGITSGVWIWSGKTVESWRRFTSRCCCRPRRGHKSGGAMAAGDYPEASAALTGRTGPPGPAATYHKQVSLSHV

Series [3] concerns the target T2, LRP6 (human, UniProt O75581 20-1613).
T2 construct: whole, on cells; The legend says 'endogenous FZD5 but not LRP6'
The series is described as follows: co-IP, immunoblot (FIG. 3F).

Series [4] has as its target T3, USP8N (UniProt P40818 1-714, limits assumed).
T3 construct: domain: USP8 N terminus; also called USP8 N terminus; N-terminal half of USP8
T3 sequence (looked up): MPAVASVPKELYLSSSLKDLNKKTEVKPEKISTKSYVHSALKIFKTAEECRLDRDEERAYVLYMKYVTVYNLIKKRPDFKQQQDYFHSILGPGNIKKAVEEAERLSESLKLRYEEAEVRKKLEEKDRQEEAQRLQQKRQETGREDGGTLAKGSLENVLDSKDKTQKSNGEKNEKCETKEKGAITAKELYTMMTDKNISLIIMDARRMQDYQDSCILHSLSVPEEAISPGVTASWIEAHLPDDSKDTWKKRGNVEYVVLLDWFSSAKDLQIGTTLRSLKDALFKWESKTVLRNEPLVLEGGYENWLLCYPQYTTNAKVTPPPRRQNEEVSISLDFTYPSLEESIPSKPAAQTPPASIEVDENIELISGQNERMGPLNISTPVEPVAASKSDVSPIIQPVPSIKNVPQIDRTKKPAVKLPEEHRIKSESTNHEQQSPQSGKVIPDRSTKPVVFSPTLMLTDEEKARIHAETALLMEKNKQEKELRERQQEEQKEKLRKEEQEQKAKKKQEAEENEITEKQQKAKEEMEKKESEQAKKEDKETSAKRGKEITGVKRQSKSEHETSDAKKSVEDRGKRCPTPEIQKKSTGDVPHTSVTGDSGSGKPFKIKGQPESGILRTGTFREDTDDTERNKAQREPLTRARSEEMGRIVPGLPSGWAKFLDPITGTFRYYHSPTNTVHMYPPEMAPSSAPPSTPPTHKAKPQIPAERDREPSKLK
The series is described as follows: co-IP, immunoblot (FIG. 5C).

T2 sequence (O75581 20-1613): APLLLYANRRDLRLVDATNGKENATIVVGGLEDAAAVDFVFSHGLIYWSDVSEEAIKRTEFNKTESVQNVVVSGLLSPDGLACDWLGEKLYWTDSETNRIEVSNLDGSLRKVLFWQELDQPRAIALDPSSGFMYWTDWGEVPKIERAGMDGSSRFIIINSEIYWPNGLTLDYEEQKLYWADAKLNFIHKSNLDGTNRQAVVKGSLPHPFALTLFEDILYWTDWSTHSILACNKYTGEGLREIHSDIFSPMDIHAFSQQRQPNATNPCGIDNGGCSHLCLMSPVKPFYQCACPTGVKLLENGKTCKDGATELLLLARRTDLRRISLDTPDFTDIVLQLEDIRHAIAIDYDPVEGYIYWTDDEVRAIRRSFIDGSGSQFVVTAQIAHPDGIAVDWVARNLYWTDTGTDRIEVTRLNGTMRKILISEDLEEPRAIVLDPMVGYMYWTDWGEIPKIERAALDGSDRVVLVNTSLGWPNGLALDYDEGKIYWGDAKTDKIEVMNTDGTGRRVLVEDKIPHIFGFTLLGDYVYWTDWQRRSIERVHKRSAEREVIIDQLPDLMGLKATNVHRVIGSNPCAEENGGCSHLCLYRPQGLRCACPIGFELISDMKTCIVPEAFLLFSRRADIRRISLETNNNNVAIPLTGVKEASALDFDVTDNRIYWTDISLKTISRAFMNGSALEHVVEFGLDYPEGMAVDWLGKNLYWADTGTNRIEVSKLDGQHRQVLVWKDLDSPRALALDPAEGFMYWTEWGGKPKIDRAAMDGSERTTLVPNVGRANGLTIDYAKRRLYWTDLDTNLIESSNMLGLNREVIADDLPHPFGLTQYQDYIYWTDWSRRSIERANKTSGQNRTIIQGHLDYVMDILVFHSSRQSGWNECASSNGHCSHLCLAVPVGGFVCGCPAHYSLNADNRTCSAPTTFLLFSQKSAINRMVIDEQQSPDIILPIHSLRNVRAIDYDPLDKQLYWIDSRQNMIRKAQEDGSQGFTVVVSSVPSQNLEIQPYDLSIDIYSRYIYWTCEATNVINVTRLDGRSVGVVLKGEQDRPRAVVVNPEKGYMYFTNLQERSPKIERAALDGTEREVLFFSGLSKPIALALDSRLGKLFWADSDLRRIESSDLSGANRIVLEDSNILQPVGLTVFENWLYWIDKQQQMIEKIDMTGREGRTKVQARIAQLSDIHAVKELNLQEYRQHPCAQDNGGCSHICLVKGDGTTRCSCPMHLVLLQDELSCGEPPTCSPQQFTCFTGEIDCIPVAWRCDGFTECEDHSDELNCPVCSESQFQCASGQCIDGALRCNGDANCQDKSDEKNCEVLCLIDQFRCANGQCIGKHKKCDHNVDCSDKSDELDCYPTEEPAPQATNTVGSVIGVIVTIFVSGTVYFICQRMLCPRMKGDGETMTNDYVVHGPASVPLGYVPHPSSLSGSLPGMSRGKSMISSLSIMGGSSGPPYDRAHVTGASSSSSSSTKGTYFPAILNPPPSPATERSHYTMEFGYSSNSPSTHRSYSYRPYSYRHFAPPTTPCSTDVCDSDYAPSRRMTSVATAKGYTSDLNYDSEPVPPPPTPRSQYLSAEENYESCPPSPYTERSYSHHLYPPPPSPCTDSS

B1: USP8C (protein)
chain: RSYSSPDITQAIQEEEKRKPTVTPTVNRENKPTCYPKAEISRLSASQIRNLNPVFGGSGPALTGLRNLGNTCYMNSILQCLCNAPHLADYFNRNCYQDDINRSNLLGHKGEVAEEFGIIMKALWTGQYRYISPKDFKITIGKINDQFAGYSQQDSQELLLFLMDGLHEDLNKADNRKRYKEENNDHLDDFKAAEHAWQKHKQLNESIIVALFQGQFKSTVQCLTCHKKSRTFEAFMYLSLPLASTSKCTLQDCLRLFSKEEKLTDNNRFYCSHCRARRDSLKKIEIWKLPPVLLVHLKRFSYDGRWKQKLQTSVDFPLENLDLSQYVIGPKNNLKKYNLFSVSNHYGGLDGGHYTAYCKNAARQRWFKFDDHEVSDISVSSVKSSAAYILFYTSLGPRVTDVAT
B1: the “deubiquitination (ubiquitylation assay)” value in series [1] was “USP8C promoted deubiquitination of both FZD5 and SMO”; in series [2], “USP8C promoted deubiquitination of both FZD5 and SMO”.

B2: TMEM79-Flag (other)
chain: MTEPETLALLDMKEPETPEKSPPQALVLQSEEEGGTESPGTESLRVGSSVGSPIVREGPEDGPDSTISEAATLPWGTDPHPSAPLPDPPGWRDIEPEPLESEAPTKSEEPFKEDANLLPEKTVRAFVPIDLQCIERKPQEERILHRDAGPGELRNFLPARLSHPEPPERKWAEAVVRPPGRSCGGCGSCGGREALRAVASVVAALIFFPCLLYGAYAFLPFDAPRLPTMSSRLVYTLRCGVFATFPIVLGLLVYGLSLLCFSALRPFGEPRREVEIHRQYVAQSVQLFILYFFNLAVLSTYLPQDTLKLLPLLTGLFAISRLIYWLTFAVGRSFRGFGYGLTFLPLLAMLVWNLYYMFVVEPERMLTASESRLDYPDHARSVSDYRPRSWG
notes: Expressed in HEK293T cells; co-IP from lysates; not shown: Flag tag at the C-terminus
On to B2, for which the binding result in series [3] was “no binding”.

B3: TMEM79 (other)
chain: MTEPETLALLDMKEPETPEKSPPQALVLQSEEEGGTESPGTESLRVGSSVGSPIVREGPEDGPDSTISEAATLPWGTDPHPSAPLPDPPGWRDIEPEPLESEAPTKSEEPFKEDANLLPEKTVRAFVPIDLQCIERKPQEERILHRDAGPGELRNFLPARLSHPEPPERKWAEAVVRPPGRSCGGCGSCGGREALRAVASVVAALIFFPCLLYGAYAFLPFDAPRLPTMSSRLVYTLRCGVFATFPIVLGLLVYGLSLLCFSALRPFGEPRREVEIHRQYVAQSVQLFILYFFNLAVLSTYLPQDTLKLLPLLTGLFAISRLIYWLTFAVGRSFRGFGYGLTFLPLLAMLVWNLYYMFVVEPERMLTASESRLDYPDHARSVSDYRPRSWG
notes: It was expressed in HEK293T cells and tested by co-IP from lysates; also called Mattrin; full length TMEM79; not shown: Myc or Flag tag or both at the C-terminus
Take B3: the binding result in series [4] is “no binding”.
